Measurements taken from patent US20100173334A1.

Columns and labels:
[1] = molecular target: haptoglobin β chain derived from cancer (serum or cells of cancer patients) (human) (UniProt P00738); assay: serum Western blot, Scion image densitometry; mean of 62 patients with early prostate cancer
[2] = molecular target: haptoglobin β chain derived from cancer (serum or cells of cancer patients) (human) (UniProt P00738); assay: serum Western blot; urothelial cancer, superficial (n=18)
[3] = molecular target: haptoglobin β chain derived from cancer (serum or cells of cancer patients) (human) (UniProt P00738); assay: serum Western blot; 15 prostate cancer patients before radical prostatectomy
[4] = molecular target: haptoglobin β chain derived from cancer (serum or cells of cancer patients) (human) (UniProt P00738); assay: sandwich ELISA: RM2 captured on anti-mouse IgM plate, diluted serum, detection with rabbit anti-haptoglobin polyclonal; mean of 12 sera of prostate cancer
[5] = molecular target: haptoglobin β chain derived from benign disease (serum of patients with benign prostatic disease) (human) (UniProt P00738); assay: sandwich ELISA: RM2 captured on anti-mouse IgM plate, diluted serum, detection with rabbit anti-haptoglobin polyclonal; mean of 12 sera of benign prostatic disease
[6] = molecular target: haptoglobin β chain derived from benign disease (serum of patients with benign prostatic disease) (human) (UniProt P00738); assay: serum Western blot, Scion image densitometry; mean of 43 patients with benign prostatic disease
[7] = molecular target: haptoglobin β chain derived from cancer (serum or cells of cancer patients) (human) (UniProt P00738); assay: serum Western blot; urothelial cancer, muscle invasive or advanced (n=19)
[8] = molecular target: haptoglobin β chain derived from cancer (serum or cells of cancer patients) (human) (UniProt P00738); assay: serum Western blot; the same 15 patients after radical prostatectomy

RM2 reaction level to GPX (normalized to 75 kDa band) (ratio of band density to the 75 kDa band) [1]: 0.96
RM2 reaction (the value normalized to RM2 reaction to 75 kDa protein) (ratio of band density to the 75 kDa band) [2]: 0.31
RM2 reaction level to GPX (normalized to 75 kDa band) (ratio of band density to the 75 kDa band) [3]: 0.92
absorbance at 450 nm (absorbance at 450 nm) [4]: 1.1
absorbance at 450 nm (absorbance at 450 nm) [5]: 0.58
RM2 reaction level to GPX (normalized to 75 kDa band) (ratio of band density to the 75 kDa band) [6]: 0.35
RM2 reaction (the value normalized to RM2 reaction to 75 kDa protein) (ratio of band density to the 75 kDa band) [7]: 0.96
RM2 reaction level to GPX (normalized to 75 kDa band) (ratio of band density to the 75 kDa band) [8]: 0.6
Substance: monoclonal antibody RM2
